Measured values: the supplement of paper PMC10567573

B1: PKD2L1 (parent)
chain: SGPEAARAGGWVSGEEFYMLTRRV

Variants of: B1
Assay: protein stability index of a GFP-peptide fusion (GPS, HEK-293T) (PSI 1-6); higher = more stable
Settings: c terminus: a fixed tail appended
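Further: lentivirally expressed fusions sorted by FACS into six bins by GFP to DsRed ratio, PSI derived from sequencing read proportions per bin multiplied by bin number.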

Protein stability index of substitutions, site by site:
P3: K 2.37; H 2.32; V 2.14; Y 1.49; I 2.16; S 2.02; F 1.83; G 2.63; M 2.2; T 2.4; L 1.91; R 1.78; Q 2.44; N 2.59; W 1.74
W11: P 3.19; I 2.6; C 2.79; H 4.33; Q 3.92; R 3.19; L 3.09; V 3.19; Y 2.75; F 2.05; K 2.21; M 2.76; N 3.85; G 3.28; T 3.09; D 3.52; A 3.56; E 4.09; S 2.89
G9: C 1.59; R 1.95; F 2.06; L 2.95; D 2.5; Y 2.21; I 2.25; A 1.92; K 1.97; V 1.85; M 1.97; S 2.42; T 1.92; Q 2.51; N 2.13; H 2.03; E 2.5; P 2.39
G10: S 2.32; C 1.82; L 2.17; P 2.37; N 2.55; D 3.01; M 2.31; W 2.53; V 1.72; Y 1.79; T 2.73; Q 2.91; R 2.56; I 3.36; A 2.22; K 2.64; E 3.31; H 3.21
A8: G 2.15; M 1.8; T 2.24; K 2.13; V 2.25; F 1.7; H 1.81; N 2.18; D 2.43; I 1.76; W 2.71; Y 1.76; L 2.02; S 2.31; E 3.22; C 1.97; P 2.05; Q 2.65; R 2.03
A5: S 1.96; G 3.07; R 2.4; M 2.58; V 3.28; D 2.71; F 2.24; P 2.2; T 1.82; W 2.06; C 1.98; H 2.03; Y 2.18; Q 2.45; E 2.32; N 2.18; L 2.19; K 1.96; I 2.33
A6: C 2.31; E 2.65; L 3.07; W 1.06; F 1.68; V 3.13; N 2.85; Q 2.13; I 2.02; K 2.12; T 2.86; S 3.01; D 2.35; R 2.43; Y 2.4; G 3.16; H 2.24; P 2.21; M 1.7
E4: F 1.71; R 2.44; V 1.56; T 1.78; H 2.28; N 2.64; S 3.46; K 1.94; D 2.59; G 2.42; I 2.02; P 2.08; C 1.81; Q 1.57; W 1.3; M 2.35; L 1.6; Y 1.92
R7: Y 2.31; P 2.68; E 2.75; Q 3.04; S 2.42; F 2.9; W 2.6; L 2.58; N 2.44; I 2.11; M 2.64; V 2.56; G 2.24; K 2.72; T 2.44
V12: H 1.84; D 2.91; A 2.51; E 3.52; F 2.12; C 2.46; G 3.15
